These results are taken from the Human Domainome abundance scans (Beltran et al. 2025).

± gives the uncertainty stated by the source.

To fix the notation:
B1: Protein maelstrom homolog, residues 3 to 71; numbered along this chain, Q96JY0 (parent)
chain: NRKASRNAYYFFVQEKIPELRRRGLPVARVADAIPYCSSDWALLREEEKEKYAEMAREWRAAQGKDPGP

Variants of B1 are the subject of this data set. The data set can be described thus: abundance fitness (aPCA) (normalised: wild type 0, dead -1); higher = more abundant; growth selection in yeast, the domain comes from the species named. The note with it: Homo sapiens.
NRKASRNAYYFFVQEKIPELRRRGLPVAEVADAIPYCSSDWALLREEEKEKYAEMAREWRAAQGKDPGP [R29E]: the abundance fitness is 0.275 ± 0.065.

As for NRKASRNAYYFFVQEKIPELRRRGLPVAHVADAIPYCSSDWALLREEEKEKYAEMAREWRAAQGKDPGP [R29H], the abundance fitness is -0.113 ± 0.13.

For the variant NRKASRNAYYFFVQEKIPELRRRGLPVAQVADAIPYCSSDWALLREEEKEKYAEMAREWRAAQGKDPGP [R29Q], the abundance fitness is 0.041 ± 0.075.

NRKASRNAYYFFVQEKIPELRRRGLPVACVADAIPYCSSDWALLREEEKEKYAEMAREWRAAQGKDPGP [R29C]: the abundance fitness is 0.118 ± 0.1.

On to NRKASRNAYYFFVQEKIPELRRRGLPVADVADAIPYCSSDWALLREEEKEKYAEMAREWRAAQGKDPGP [R29D], for which the abundance fitness amounted to 0.148 ± 0.15.

Take NRKASRNAYYFFVQEKIPELRRRGLPVAGVADAIPYCSSDWALLREEEKEKYAEMAREWRAAQGKDPGP [R29G]: the abundance fitness is 0.052 ± 0.05.

Regarding NRKASRNAYYFFVQEKIPELRRRGLPVALVADAIPYCSSDWALLREEEKEKYAEMAREWRAAQGKDPGP [R29L], the abundance fitness was -0.032 ± 0.056.

As for NRKASRNAYYFFVQEKIPELRRRGLPVAFVADAIPYCSSDWALLREEEKEKYAEMAREWRAAQGKDPGP [R29F], the abundance fitness is -0.478 ± 0.26.

Turning to NRKASRNAYYFFVQEKIPELRRRGLPVAPVADAIPYCSSDWALLREEEKEKYAEMAREWRAAQGKDPGP [R29P], the abundance fitness was -1.09 ± 0.17.

Turning to NRKASRNAYYFFVQEKIPELRRRGLPVASVADAIPYCSSDWALLREEEKEKYAEMAREWRAAQGKDPGP [R29S], the abundance fitness came to 0.221 ± 0.14.

For the variant NRKASRNAYYFFVQEKIPELRRRGLPVAYVADAIPYCSSDWALLREEEKEKYAEMAREWRAAQGKDPGP [R29Y], the abundance fitness was -0.101 ± 0.15.

In the case of NRKASRNAYYFFVQEKIPELRRRGLPVAIVADAIPYCSSDWALLREEEKEKYAEMAREWRAAQGKDPGP [R29I], the abundance fitness amounted to 0.139 ± 0.14.

Take NRKASRNAYYFFVQEKIPELRRRGLPVAKVADAIPYCSSDWALLREEEKEKYAEMAREWRAAQGKDPGP [R29K]: the abundance fitness worked out at 0.178 ± 0.064.

For the variant NRKASRNAYYFFVQEKIPELRRRGLPVAVVADAIPYCSSDWALLREEEKEKYAEMAREWRAAQGKDPGP [R29V], the abundance fitness stood at 0.049 ± 0.062.

In the case of NRKASRNAYYFFVQEKIPELRRRGLPVANVADAIPYCSSDWALLREEEKEKYAEMAREWRAAQGKDPGP [R29N], the abundance fitness was found to be 0.105 ± 0.11.

Take NRKASRNAYYFFVQEKIPELRRRGLPVAWVADAIPYCSSDWALLREEEKEKYAEMAREWRAAQGKDPGP [R29W]: the abundance fitness is -0.47 ± 0.086.

As for NRKASRNAYYFFVQEKIPELRRRGLPTARVADAIPYCSSDWALLREEEKEKYAEMAREWRAAQGKDPGP [V27T], the abundance fitness was -0.235 ± 0.17.

NRKASRNAYYFFVQEKIPELRRRGLPRARVADAIPYCSSDWALLREEEKEKYAEMAREWRAAQGKDPGP [V27R]: the abundance fitness is -0.742 ± 0.077.

For NRKASRNAYYFFVQEKIPELRRRGLPCARVADAIPYCSSDWALLREEEKEKYAEMAREWRAAQGKDPGP [V27C], the abundance fitness was -0.026 ± 0.1.

For NRKASRNAYYFFVQEKIPELRRRGLPIARVADAIPYCSSDWALLREEEKEKYAEMAREWRAAQGKDPGP [V27I], the abundance fitness is -0.319 ± 0.16.

With NRKASRNAYYFFVQEKIPELRRRGLPQARVADAIPYCSSDWALLREEEKEKYAEMAREWRAAQGKDPGP [V27Q], the abundance fitness was -1.08 ± 0.21.

Regarding NRKASRNAYYFFVQEKIPELRRRGLPDARVADAIPYCSSDWALLREEEKEKYAEMAREWRAAQGKDPGP [V27D], the abundance fitness is -0.738 ± 0.45.

Regarding NRKASRNAYYFFVQEKIPELRRRGLPEARVADAIPYCSSDWALLREEEKEKYAEMAREWRAAQGKDPGP [V27E], the abundance fitness is -0.831 ± 0.15.

Turning to NRKASRNAYYFFVQEKIPELRRRGLPGARVADAIPYCSSDWALLREEEKEKYAEMAREWRAAQGKDPGP [V27G], the abundance fitness is -0.594 ± 0.078.

In the case of NRKASRNAYYFFVQEKIPELRRRGLPMARVADAIPYCSSDWALLREEEKEKYAEMAREWRAAQGKDPGP [V27M], the abundance fitness is -0.511 ± 0.1.

For NRKASRNAYYFFVQEKIPELRRRGLPWARVADAIPYCSSDWALLREEEKEKYAEMAREWRAAQGKDPGP [V27W], the abundance fitness was -0.584 ± 0.1.

Take NRKASRNAYYFFVQEKIPELRRRGLPLARVADAIPYCSSDWALLREEEKEKYAEMAREWRAAQGKDPGP [V27L]: the abundance fitness is -0.329 ± 0.062.

Regarding NRKASRNAYYFFVQEKIPELRRRGLPFARVADAIPYCSSDWALLREEEKEKYAEMAREWRAAQGKDPGP [V27F], the abundance fitness was -0.159 ± 0.18.

Turning to NRKASRNAYYFFVQEKIPELRRRGLPNARVADAIPYCSSDWALLREEEKEKYAEMAREWRAAQGKDPGP [V27N], the abundance fitness was -0.02 ± 0.21.

Take NRKASRNAYYFFVQEKIPELRRRGLPPARVADAIPYCSSDWALLREEEKEKYAEMAREWRAAQGKDPGP [V27P]: the abundance fitness was -0.73 ± 0.18.

NRKASRNAYYFFVQEKIPELRRRGLPKARVADAIPYCSSDWALLREEEKEKYAEMAREWRAAQGKDPGP [V27K]: the abundance fitness is -0.744 ± 0.17.

For NRKASRNAYYFFVQEKIPELRRRGLPSARVADAIPYCSSDWALLREEEKEKYAEMAREWRAAQGKDPGP [V27S], the abundance fitness is -0.104 ± 0.087.

With NRKASRNAYYFFVQEKIPELRRRGLPVARVAEAIPYCSSDWALLREEEKEKYAEMAREWRAAQGKDPGP [D32E], the abundance fitness was -0.055 ± 0.099.

Consider NRKASRNAYYFFVQEKIPELRRRGLPVARVAFAIPYCSSDWALLREEEKEKYAEMAREWRAAQGKDPGP [D32F], for which the abundance fitness was -0.956 ± 0.28.

As to NRKASRNAYYFFVQEKIPELRRRGLPVARVACAIPYCSSDWALLREEEKEKYAEMAREWRAAQGKDPGP [D32C], the abundance fitness is -0.735 ± 0.27.

NRKASRNAYYFFVQEKIPELRRRGLPVARVAHAIPYCSSDWALLREEEKEKYAEMAREWRAAQGKDPGP [D32H]: the abundance fitness is -0.535 ± 0.37.

Take NRKASRNAYYFFVQEKIPELRRRGLPVARVAGAIPYCSSDWALLREEEKEKYAEMAREWRAAQGKDPGP [D32G]: the abundance fitness is -0.794 ± 0.084.

Take NRKASRNAYYFFVQEKIPELRRRGLPVARVAAAIPYCSSDWALLREEEKEKYAEMAREWRAAQGKDPGP [D32A]: the abundance fitness is -0.421 ± 0.076.

Take NRKASRNAYYFFVQEKIPELRRRGLRVARVADAIPYCSSDWALLREEEKEKYAEMAREWRAAQGKDPGP [P26R]: the abundance fitness is -0.431 ± 0.25.
